Measured values from patent US20220275053A1, “MODIFIED […] PEPTIDE LIGANDS” (BicycleTx Limited, priority 2019, published 2022).
*1 amine or outer side, *2 acyl side, *3 side chain or, on linkers, in order; H or OH if unused. Bridges are numbered along the chain shown (N, C = ends). Where no end group is shown, it is not given here. [ ]: non-standard residue; d: D form. PYA = propargyl-acid (alkyne used for click attachment); TATA = O=C(CC[*:1])N1CN(C(=O)CC[*:2])CN(C(=O)CC[*:3])C1; tBuAla = CC(C)(C)C[C@H](N)C(=O)O; Nle = CCCC[C@H](N)C(=O)O

B1: BCY7340 (peptide)
peptide: CIEEGQYCFADPYMCAX
modifications: N-terminal acetyl; C-terminal Pra (propargylglycine) amide (CONH2); the three Cys cyclised on the TATA scaffold; joined through Pra to spacer SA (n = 23) on central hinge moiety C; fluorescein on the hinge without spacer (formula (II))
notes: also called fluorescent CD137 multimer; fluorescent CD137 dimer
B2: BCY15416 (peptide)
peptide: Ac-C[tBuAla]PE[dK](PYA)PYCFADPY[Nle]CA
modifications: linker 1-8-15 via TATA; also: dimer: joined through PYA directly to central hinge moiety D, Alexa Fluor 488 on the hinge without spacer (formula (II))
notes: also called fluorescently labelled CD137 dimer; CD137 dimer
B3: BCY9932 (peptide)
peptide: ACIEEGQYCFADPYXCX
modifications: N-terminal acetyl; Nle (norleucine) at position 12 of the core; C-terminal Dap(PYA) amide (CONH2); the three Cys cyclised on the TATA scaffold; joined through PYA to spacer SA (n = 10) on central hinge moiety B; Alexa Fluor 488 on the hinge without spacer (formula (II))
notes: also called fluorescent CD137 multimer; fluorescent trimer

Tests used:
human CD137 [1] = biological target: T1, human CD137 (human, UniProt Q07011 24-255); test: flow cytometry, direct binding to activated human CD8+/CD137+ T cells
T1 construct: whole, on cells; Endogenous receptor on CD3-stimulated human PBMCs or purified CD8+ T cells; also called CD137 receptor; 4-1BB

human CD137 [2] = biological target: T1, human CD137; test: flow cytometry on CD3-stimulated human PBMCs, apparent affinity (kd,app), CD8+ CD137+ population, donor 217071
Method: (§1) Plates were then incubated for 1 hour at 37° C., 5% CO₂. Post-incubation, plate was centrifuged at 500 rpm for 5 minutes and supernatant discarded. Samples were then washed once in 200 μL of 1× phosphate buffer saline (PBS; Gibco™ 10-010-023) at 500 rpm for 5 minutes. Cells were resuspended in 200 μL of PBS and transferred to a 96-well V-bottom polypropylene plate (Greiner Bio-One 651201). Samples were then centrifuged at 500 rpm for 5 minutes and supernatant was discarded.
(§2) Preparation of samples for flow cytometry: Zombie Violet™ Fixable Viability Dye (BioLegend® 423113) was prepared as a 1:1000 dilution in PBS and 100 μL of viability dye was added to each well and incubated in the dark at 4° C. for 30 minutes. Subsequently, wells were washed with 100 μL of PBS for 5 minutes at 500 rpm and supernatant was discarded. […] Cells resuspended in 200 μL of stain buffer were kept at 4° C. and in the dark until read by BD FACSCelesta™ flow cytometer and FCS files were analyzed in FlowJo™.
(§3) Cells were gated on lymphocytes→singlets→live→CD4+ or CD8+→CD137+/− and the geometric mean of Alexa Fluor® 488 (conjugated to BCY15416) was calculated from the CD137+ and CD137− populations shown below. […] Calculated binding affinity (kd,app) for each donor appear in Table 5. […]

human CD137 [3] = biological target: T1, human CD137; test: flow cytometry on CD3-stimulated human PBMCs, apparent affinity (kd,app), CD4+ CD137+ population, donor 214026
Method: as §1, §2, §3

human CD137 [4] = biological target: T1, human CD137; test: flow cytometry on CD3-stimulated human PBMCs, apparent affinity (kd,app), CD8+ CD137+ population, donor 214026
Method: as §1, §2, §3

human CD137 [5] = biological target: T1, human CD137; test: flow cytometry on CD3-stimulated human PBMCs, apparent affinity (kd,app), CD4+ CD137+ population, donor 217071
Method: as §1, §2, §3

human CD137 [6] = biological target: T1, human CD137; test: flow cytometry on CD3-stimulated human PBMCs, apparent affinity (kd,app), CD8+ CD137+ population, donor 214047
Method: as §1, §2, §3

human CD137 [7] = biological target: T1, human CD137; test: flow cytometry on CD3-stimulated human PBMCs, apparent affinity (kd,app), CD4+ CD137+ population, donor 214047
Method: as §1, §2, §3

T1 sequence (Q07011 24-255): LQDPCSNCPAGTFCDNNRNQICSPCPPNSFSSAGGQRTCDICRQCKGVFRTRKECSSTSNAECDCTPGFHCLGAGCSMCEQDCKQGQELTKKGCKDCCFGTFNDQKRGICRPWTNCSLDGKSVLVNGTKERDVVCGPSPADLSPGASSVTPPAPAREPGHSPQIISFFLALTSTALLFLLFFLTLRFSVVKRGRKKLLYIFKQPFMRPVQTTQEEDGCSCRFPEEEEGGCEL

Row | Binder | binding result (human CD137 [1]) | Kd (human CD137 [2]) | Kd (human CD137 [3]) | Kd (human CD137 [4]) | Kd (human CD137 [5]) | Kd (human CD137 [6]) | Kd (human CD137 [7])
1 | B1 | binds | – | – | – | – | – | –
2 | B2 | – | 0.13 nM | 0.875 nM | 0.114 nM | 0.13 nM | 0.118 nM | 0.144 nM
3 | B3 | binds | – | – | – | – | – | –
